Broadly, the Kd is a measure of binding affinity in units of concentration.

Experimental findings from patent US20140086913A1 (Gilead, published 2014) are described below.

The target in assay [1] is human DDR1 (isoform B) stably expressed on HEK293 cells (human) (UniProt Q08345). Nature of the assay: flow cytometry, HEK293/human DDR1, normalized to empty-vector cells. A general note: In flow cytometry, cells or beads pass a laser one at a time.
The target of assay [2] is DDR1 stably over-expressed in HCT-116 tumor cells, Q08345. The assay can be described thus: cell-based or functional assay.
In assay [3] the target is DDR1 with a ProLink Tag (PK) in engineered U20S cells (DiscoveRx), Q08345. The assay can be described thus: cell-based or functional assay.
The target of assay [4] is T1, mouse DDR1 stably expressed on HEK293 cells (mouse, UniProt Q03146 20-911).
T1 construct: whole, on cells; also called murine DDR1
T1 sequence (looked up): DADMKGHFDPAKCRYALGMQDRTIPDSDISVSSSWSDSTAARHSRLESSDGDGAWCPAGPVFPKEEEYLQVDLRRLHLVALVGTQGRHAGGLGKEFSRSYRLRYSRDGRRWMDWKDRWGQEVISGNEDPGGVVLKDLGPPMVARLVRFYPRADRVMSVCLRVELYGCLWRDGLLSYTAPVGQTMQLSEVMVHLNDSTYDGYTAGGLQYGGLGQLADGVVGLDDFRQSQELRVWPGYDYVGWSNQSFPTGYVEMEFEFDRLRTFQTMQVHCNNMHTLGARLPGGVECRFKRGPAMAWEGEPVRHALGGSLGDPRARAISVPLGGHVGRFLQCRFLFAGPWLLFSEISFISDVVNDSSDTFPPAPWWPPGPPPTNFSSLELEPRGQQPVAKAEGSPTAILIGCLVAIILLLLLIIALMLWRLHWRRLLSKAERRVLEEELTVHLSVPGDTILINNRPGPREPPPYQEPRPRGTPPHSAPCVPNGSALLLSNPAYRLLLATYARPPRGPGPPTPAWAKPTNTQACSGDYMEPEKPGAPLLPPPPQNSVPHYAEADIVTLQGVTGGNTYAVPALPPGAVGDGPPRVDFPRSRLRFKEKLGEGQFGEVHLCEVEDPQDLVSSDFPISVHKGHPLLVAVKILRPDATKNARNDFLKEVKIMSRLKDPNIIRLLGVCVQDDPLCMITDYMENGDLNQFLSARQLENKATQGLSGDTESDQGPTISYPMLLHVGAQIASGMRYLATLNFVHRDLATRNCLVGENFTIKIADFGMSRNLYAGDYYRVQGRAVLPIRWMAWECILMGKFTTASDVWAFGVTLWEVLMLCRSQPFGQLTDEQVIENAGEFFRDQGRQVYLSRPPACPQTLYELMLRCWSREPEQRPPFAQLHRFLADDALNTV
The assay can be described thus: flow cytometry, column without head (taken as HEK293/mouse DDR1). The procedure:
Additional monoclonal antibodies were obtained from individual hybridomas in Example 1 and were characterized for their properties.
Cells were cultured in DMEM with 10% FBS and 0.8 mg/mL hygromycin. When cells reached 60-80% confluence, they were centrifuged at 1,200 rpm for 5 minutes, suspended in FACS buffer (1×PBS, 1% BSA), and aliquoted into a 96-well plate at 1×10⁶ cells per well. The anti-DDR1 monoclonal antibodies or appropriate isotype controls at 2 μg per 1×10⁶ cells were added and incubated at 4° C. for 1 hr. The cells were washed twice with FACS buffer then stained with the anti-IgG-PE secondary antibody at 10 μL per well at 4° C. for 1 hr. The cells were washed again and measured for the MFI values or signals using flow cytometry (LSR Fortessa instrument, BD Biosciences). Background MFI signals from vector-only cells (i.e. no DDR1 or DDR2 expression) was subtracted from those of the cells treated with antibodies. Higher MFI values or signals indicated increased binding or specificity of the anti-DDR1 antibodies to the DDR1 on the cell surface.

Assay [5] addresses T2, DDR1ECD-Fc (R&D Systems, Catalog #2396-DR) (human, UniProt Q08345 21-416).
T2 construct: range 21-416; construct as described for the bought immunogen; also called human ECD-DDR1-Fc; Fc-ECD-DR1; not shown: human IgG1, Pro100-Lys330
Nature of the assay: ELISA. (In general: In an ELISA, binding on a coated surface is turned into a signal by an enzyme label.)

In assay [6] the target is DDR1 stably over-expressed in HCT-116 tumor cells (UniProt Q08345). The assay can be described thus: cell-based or functional assay.
Assay [7] has as its target DDR1 with a ProLink Tag (PK) in engineered U20S cells (DiscoveRx) (UniProt Q08345). The assay can be described thus: cell-based or functional assay.
For assay [8], the target named is DDR1 endogenously expressed on human cancer cell lines (T47D, HCT-116, A431) (human) (UniProt Q08345). The assay can be described thus: cell-based or functional assay.

T2 sequence (Q08345 other isoform, or with tags, fused parts or gaps limits assumed): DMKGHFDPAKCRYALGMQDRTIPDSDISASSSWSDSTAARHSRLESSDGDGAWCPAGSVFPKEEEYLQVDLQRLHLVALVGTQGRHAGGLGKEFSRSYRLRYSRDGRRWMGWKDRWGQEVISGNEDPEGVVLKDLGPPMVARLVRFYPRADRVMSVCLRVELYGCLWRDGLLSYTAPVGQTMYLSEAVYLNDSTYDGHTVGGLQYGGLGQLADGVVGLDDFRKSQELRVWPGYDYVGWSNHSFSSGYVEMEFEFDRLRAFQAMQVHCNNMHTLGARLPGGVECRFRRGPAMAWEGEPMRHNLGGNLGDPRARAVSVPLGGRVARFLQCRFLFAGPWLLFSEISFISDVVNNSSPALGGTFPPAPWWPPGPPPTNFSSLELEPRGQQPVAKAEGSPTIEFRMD
Sequence of DDR1 stably over-expressed in HCT-116 tumor cells (Q08345 19-913): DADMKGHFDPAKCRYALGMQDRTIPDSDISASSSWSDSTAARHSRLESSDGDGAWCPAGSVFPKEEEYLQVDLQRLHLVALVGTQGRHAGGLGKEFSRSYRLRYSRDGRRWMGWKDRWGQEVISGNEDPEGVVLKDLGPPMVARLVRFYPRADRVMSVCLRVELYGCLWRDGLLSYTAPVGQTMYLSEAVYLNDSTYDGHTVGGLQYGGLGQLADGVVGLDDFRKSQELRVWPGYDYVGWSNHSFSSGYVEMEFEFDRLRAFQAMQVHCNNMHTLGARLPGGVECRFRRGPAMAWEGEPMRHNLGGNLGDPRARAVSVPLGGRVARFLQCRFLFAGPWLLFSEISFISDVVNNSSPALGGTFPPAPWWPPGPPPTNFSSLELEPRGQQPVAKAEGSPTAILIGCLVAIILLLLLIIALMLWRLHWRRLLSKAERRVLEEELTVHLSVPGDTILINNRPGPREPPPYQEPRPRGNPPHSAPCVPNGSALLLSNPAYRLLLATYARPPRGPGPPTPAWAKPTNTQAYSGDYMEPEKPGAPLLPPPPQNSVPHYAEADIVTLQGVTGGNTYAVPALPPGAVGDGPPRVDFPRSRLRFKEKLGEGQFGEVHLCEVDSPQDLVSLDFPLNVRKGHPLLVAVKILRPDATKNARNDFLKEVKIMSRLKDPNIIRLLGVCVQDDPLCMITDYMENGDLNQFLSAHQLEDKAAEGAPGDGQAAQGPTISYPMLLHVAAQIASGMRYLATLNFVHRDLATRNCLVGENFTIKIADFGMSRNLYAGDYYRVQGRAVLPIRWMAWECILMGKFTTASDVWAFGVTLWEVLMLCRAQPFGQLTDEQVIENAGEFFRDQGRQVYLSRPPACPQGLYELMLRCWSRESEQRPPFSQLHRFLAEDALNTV

B1: AB2004 (antibody, V domains shown)
VH: DVHLQESGPDLVKPSQSLSLTCTVTDYSITSGYGWHWIRQFPGNKLEWMGYIHYGGSTKYNSSLKSRISITRDTSKNQFFLQLKSVTTDDTGTYYCATSGNYGFAYWGQGTLVTVSA
VL: DIVLTQSPTSLAVSLGQRATMSCRASESVDDYGTSFMHWYQQKPGQPPKLLIYRASNLESGIPARFSGSGSRADFTLSINPVEPDDVATYYCQQSNEDPFTFGSGTKLEIKR
notes: mouse hybridoma mAb
With B1, the MFI in assay [1] came to 14400 MFI. In assay [2], this molecule displayed an EC50, NFkB luciferase reporter (HCT-116, collagen II) of 3.7 nM; an EC50, collagen-mediated relocalization of DDR1 (HCT-116) of 1.4 nM; an EC90, NFkB luciferase reporter (HCT-116, collagen II) of 6.95 nM. For the same molecule, the Mean EC50, DDR1 Tyr513 phosphorylation assay (U20S) in assay [3] is 1.85 nM. In addition, the MFI in assay [4] is 9500 MFI. This molecule yielded a Kd in assay [5] of 0.154 nM.

B2: AB2078 (antibody, V domains shown)
VH: EIQLQQSGPELVNPGASVKVSCKASGYSFTDYNMYWVKQSHGKSLEWIGYIDPYNGGTSYNQKFKGKATLTVDKSSSTAFMHLNSLTSEDSAVYYCAREYYGSRLWYFDVWGAGTAVTVSS
VL: DIVMTQSPSSLAMSVGQKVTMSCKSSQSLLNRNNQKNYLAWYQQKPGQSPKLLVYFASTRESGVPDRFIGSGSGTDFTLTLSSVRAEDLAENFCQQHYSTPFTFGSGTRLEIKR
notes: mouse hybridoma mAb
The molecule B2 showed an MFI in assay [1] of 7490 MFI. In addition, in assay [6], the EC50, NFkB luciferase reporter (HCT-116, collagen II) turned out to be 3.01 nM and the EC90, NFkB luciferase reporter (HCT-116, collagen II) was found to be 6.66 nM. The molecule further came in with a Mean EC50, DDR1 Tyr513 phosphorylation assay (U20S) in assay [7] of 1.33 nM. Besides, the MFI in assay [4] worked out at 24200 MFI. In assay [5], this molecule displayed a Kd of 0.374 nM.

B3: AB2092 (antibody, V domains shown)
VH: QIQLVQSGPELKKSGETVKISCKASGYTFTDYGMNWVKQAPGKGLKWMGWINTYTGKSTYADDFKGRFAFSLETSASTTYLQITNLKNEDMATYFCARWADYFGSSYLFASWGQGTLVTVSA
VL: DVLMTQTPLSLPVSLGDQASISCRSSQSIVHSDGNTYLEWYLQKPGQSPKLLIYKVSNRFSGVPDRFSGSGSGTDFTLKISRVEAEDLGIYYCFQGSHVPWTFGGGTKLEIKR
notes: mouse hybridoma mAb
In turn, B3 displayed an MFI in assay [1] of 6020 MFI. In addition, in assay [8], the EC50, DDR1 phospho-specific ELISA (T47D) worked out at 0.52 nM; the EC50, cluster formation assay (A431 cells) came to 4.18 nM; the Maximal inhibition, DDR1 phospho-specific ELISA (T47D) was determined as 100%. In assay [2], this molecule came in with an EC50, NFkB luciferase reporter (HCT-116, collagen II) of 1.13 nM and an EC90, NFkB luciferase reporter (HCT-116, collagen II) of 4.73 nM. The same molecule returned a Mean EC50, DDR1 Tyr513 phosphorylation assay (U20S) in assay [3] of 2.45 nM. Also, the MFI in assay [4] turned out to be 22800 MFI. In assay [5], this molecule displayed a Kd of 0.287 nM.

B4: AB2039 (antibody, V domains shown)
VH: EVQLVESGGGLVQPGGSLKFSCAASGFTFSSYGMSWVRQTPDKRLELVAIINSHGFSTYYPDSVKGRFTISRDNAKNTLYLQMSSLKSEDTAIYYCARGGYGNYGMDYWGQGTSVTVSS
VL: DIVLTQSPASLAVSLGQRATISCRASESVDSYGNSFMHWYQQKVGQPPKLLIFRASNIESGIPARFSGSGSRTDFTLTINSVEADDVATYYCQQSNEAPYTFGGGTKLEIKR
notes: mouse hybridoma mAb; also called AB0039
As for B4, the MFI in assay [1] worked out at 8020 MFI. In assay [2], the EC50, NFkB luciferase reporter (HCT-116, collagen II) came to 1.63 nM; the EC50, collagen-mediated relocalization of DDR1 (HCT-116) stood at 0.45 nM; the EC90, NFkB luciferase reporter (HCT-116, collagen II) is 4.61 nM. Besides, in assay [3], the Mean EC50, DDR1 Tyr513 phosphorylation assay (U20S) turned out to be 1.1 nM. This molecule also had an MFI in assay [4] of 10500 MFI. Further, in assay [5], the Kd amounted to 0.346 nM.

B5: AB2010 (antibody, V domains shown)
VH: QVQLKQSGPGLVQPSQSLSITCTVSGFSFTGYGIHWVRQSPGKGLEWLGVIWSGGITDYNAAFISRLSISMDSSKGQVFFKMNSLQANDTAIYYCARRSTTVVADYAMDYWGQGTSVTVSS
VL: SIVMTQTPKFLLVSAGDRVTITCKASQSVSNDVAWYQQKPGQSPKLLIYYASNRYTGVPDRFTGSGYGTDFTFTINTVQAEDLAVYFCQQDYTSPLTFGAGTKLELKR
notes: mouse hybridoma mAb
For B5, the Mean EC50, DDR1 Tyr513 phosphorylation assay (U20S) in assay [3] turned out to be 7.6 nM. In assay [4], the MFI was 7140 MFI.

B6: AB2041 (antibody, V domains shown)
VH: QVQLHQSGSELAKPGASVKMSCKASGYIFTTYWIHWLKQRPGQGLEWIGFINPDTDYTEYNQKFKDKATLTADKSSNTAYVQLSSLTSEDSAVYYCARGNYGYDGLVYWGLGTLVTVSA
VL: SIVMTQTPKFLLVSAGDRVTITCKASQSVSTDVAWYQQKPGQSPKLLIYYASNRYTGVPDRFTGSGYGTDFTFTISTVQAEDLAVYFCQQDYNSYTFGGGTKLEIKR
notes: mouse hybridoma mAb
On to B6, for which, in assay [1], the MFI worked out at 12500 MFI. In assay [8], this molecule displayed an EC50, DDR1 phospho-specific ELISA (T47D) of 0.72 nM; an EC50, cluster formation assay (A431 cells) of 2.03 nM; a Maximal inhibition, DDR1 phospho-specific ELISA (T47D) of 100%. In assay [2], the EC50, NFkB luciferase reporter (HCT-116, collagen II) came out at 1.12 nM; the EC50, collagen-mediated relocalization of DDR1 (HCT-116) came out at 2.2 nM; the EC90, NFkB luciferase reporter (HCT-116, collagen II) was determined as 4.17 nM. In assay [3], this molecule showed a Mean EC50, DDR1 Tyr513 phosphorylation assay (U20S) of 2.65 nM. Moreover, the Kd in assay [5] was 0.561 nM.
